Broadly, the Kd is the equilibrium constant for the complex coming apart.

2 molecules from patent US20090291890A1 (published 2009) can be followed below.

Assay [1] concerns the target Factor X (FX) (Homo sapiens (Human)) (UniProt P00742).
Assay [2] shares this target. The source holds these as a separate data set.
Assay [3] has as its target T1, soluble tissue factor (recombinant human Coagulation Factor III/soluble tissue factor; R&D Systems) (human).
T1 chain: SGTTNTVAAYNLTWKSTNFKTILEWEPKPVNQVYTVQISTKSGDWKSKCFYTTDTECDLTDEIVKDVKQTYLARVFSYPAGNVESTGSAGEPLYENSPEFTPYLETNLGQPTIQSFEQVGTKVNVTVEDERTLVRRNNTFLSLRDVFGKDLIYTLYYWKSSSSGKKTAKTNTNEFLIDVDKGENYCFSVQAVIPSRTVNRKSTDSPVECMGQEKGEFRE
As to the kind of experiment: SPR (Biacore T100), sTF on chip, two-state fit. (In SPR one partner is held on a chip, and binding of the other changes the refractive index at the surface.)

For assay [4], the target named is T1, soluble tissue factor (recombinant …). As to the kind of experiment: SPR (Biacore T100), sTF on chip, two-state fit; FVIIa made in CHOX cells.
The target is the same in assay [5]. As to the kind of experiment: SPR (Biacore T100), sTF on chip, two-state fit; FVIIa made in CHOX stable cell line clone 52-5F7.

Chain of Factor X (FX) (Homo sapiens (Human)) (P00742 41-488 limits assumed): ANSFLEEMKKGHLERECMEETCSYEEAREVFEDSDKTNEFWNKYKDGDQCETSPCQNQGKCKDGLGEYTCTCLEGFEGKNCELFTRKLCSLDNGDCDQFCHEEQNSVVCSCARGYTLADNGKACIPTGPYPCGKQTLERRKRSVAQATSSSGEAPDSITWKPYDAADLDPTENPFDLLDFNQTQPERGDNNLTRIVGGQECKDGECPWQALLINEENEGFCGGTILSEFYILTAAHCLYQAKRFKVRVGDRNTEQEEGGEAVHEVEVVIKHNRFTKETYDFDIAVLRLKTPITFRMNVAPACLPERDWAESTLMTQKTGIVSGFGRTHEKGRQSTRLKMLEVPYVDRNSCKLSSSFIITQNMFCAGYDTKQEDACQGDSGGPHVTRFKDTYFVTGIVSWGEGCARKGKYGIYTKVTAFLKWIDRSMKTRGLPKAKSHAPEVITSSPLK

On to wild-type Factor VIIa (FVIIa) (enzyme), for which the catalytic activity, kcat/Km (M^-1sec^-1), for FX activation in the presence of lipidated TF in assay [1] stood at 1.8e+07 M⁻¹ s⁻¹.

B1: FVIIa Q286R/M298Q (enzyme)
chain: ANAFLEELRPGSLERECKEEQCSFEEAREIFKDAERTKLFWISYSDGDQCASSPCQNGGSCKDQLQSYICFCLPAFEGRNCETHKDDQLICVNENGGCEQYCSDHTGTKRSCRCHEGYSLLADGVSCTPTVEYPCGKIPILEKRNASKPQGRIVGGKVCPKGECPWQVLLLVNGAQLCGGTLINTIWVVSAAHCFDKIKNWRNLIAVLGEHDLSEHDGDEQSRRVAQVIIPSTYVPGTTNHDIALLRLHQPVVLTDHVVPLCLPERTFSERTLAFVRFSLVSGWGRLLDRGATALELQVLNVPRLMTQDCLQQSRKVGDSPNITEYMFCAGYSDGSKDSCKGDSGGPHATHYRGTWYLTGIVSWGQGCATVGHFGVYTRVSQYIEWLQKLMRSEPRPGVLLRAPFP
As for B1, the kcat/KM, TF-Dependent Indirect Assay in assay [2] amounted to 1.85e+08 M⁻¹ s⁻¹. Moreover, the “Affinity Kd-WT/Kd-mut” value in assay [3] amounted to 1.9; in assay [4] it was 1.1. Also, the values for the Kd in assay [3], in assay [4] and in assay [5] were 4.1 nM, 3.6 nM and 3.2 nM, respectively.
